Key:
[1] = molecular target: T1, CD3 molecules on human T cells (human, UniProt P07766 23-207); assay: cell-based or functional assay
[2] = molecular target: T1, CD3 molecules on human T cells; assay: cell-based or functional assay; remark: listed apart in the source

T1 sequence (P07766 23-207): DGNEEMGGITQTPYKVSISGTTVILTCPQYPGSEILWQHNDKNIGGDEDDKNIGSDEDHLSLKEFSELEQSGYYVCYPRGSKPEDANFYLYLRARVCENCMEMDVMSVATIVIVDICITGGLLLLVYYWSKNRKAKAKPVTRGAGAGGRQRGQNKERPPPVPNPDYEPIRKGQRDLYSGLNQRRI

B1: REGN1979 (bispecific antibody, human IgG4 S228P, kappa)
heavy 1: EVQLVESGGGLVQPGRSLRLSCVASGFTFNDYAMHWVRQAPGKGLEWVSVISWNSDSIGYADSVKGRFTISRDNAKNSLYLQMHSLRAEDTALYYCAKDNHYGSGSYYYYQYGMDVWGQGTTVTVSSASTKGPSVFPLAPCSRSTSESTAALGCLVKDYFPEPVTVSWNSGALTSGVHTFPAVLQSSGLYSLSSVVTVPSSSLGTKTYTCNVDHKPSNTKVDKRVESKYGPPCPPCPAPPVAGPSVFLFPPKPKDTLMISRTPEVTCVVVDVSQEDPEVQFNWYVDGVEVHNAKTKPREEQFNSTYRVVSVLTVLHQDWLNGKEYKCKVSNKGLPSSIEKTISKAKGQPREPQVYTLPPSQEEMTKNQVSLTCLVKGFYPSDIAVEWESNGQPENNYKTTPPVLDSDGSFFLYSRLTVDKSRWQEGNVFSCSVMHEALHNHYTQKSLSLSLGK
heavy 2: EVQLVESGGGLVQPGRSLRLSCAASGFTFDDYTMHWVRQAPGKGLEWVSGISWNSGSIGYADSVKGRFTISRDNAKKSLYLQMNSLRAEDTALYYCAKDNSGYGHYYYGMDVWGQGTTVTVASASTKGPSVFPLAPCSRSTSESTAALGCLVKDYFPEPVTVSWNSGALTSGVHTFPAVLQSSGLYSLSSVVTVPSSSLGTKTYTCNVDHKPSNTKVDKRVESKYGPPCPPCPAPPVAGPSVFLFPPKPKDTLMISRTPEVTCVVVDVSQEDPEVQFNWYVDGVEVHNAKTKPREEQFNSTYRVVSVLTVLHQDWLNGKEYKCKVSNKGLPSSIEKTISKAKGQPREPQVYTLPPSQEEMTKNQVSLTCLVKGFYPSDIAVEWESNGQPENNYKTTPPVLDSDGSFFLYSRLTVDKSRWQEGNVFSCSVMHEALHNRFTQKSLSLSLGK
light: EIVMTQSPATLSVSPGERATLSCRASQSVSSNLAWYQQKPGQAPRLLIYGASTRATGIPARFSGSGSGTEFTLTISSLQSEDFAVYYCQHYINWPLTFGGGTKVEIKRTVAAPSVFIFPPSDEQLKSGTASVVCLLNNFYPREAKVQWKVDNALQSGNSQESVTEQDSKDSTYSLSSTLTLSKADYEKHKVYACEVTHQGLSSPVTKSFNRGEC
- CD4+ T cell activation (% CD25+), Fold Change (EC50), fixed REGN5837 0 (reference) [1]: 1 fold
- CD4+ T cell activation (% CD25+), REGN1979 EC50 (M), fixed REGN5837 0 [1]: 9.17e-13 M
- CD4+ T cell activation (% CD25+), REGN1979 EC50 (M), fixed REGN5837 1.00 × 10^-7 [1]: 1.16e-13 M
- CD4+ T cell activation (% CD25+), REGN1979 EC50 (M), fixed REGN5837 1.67 × 10^-8 [1]: 8.7e-14 M
- CD4+ T cell activation (% CD25+), REGN1979 EC50 (M), fixed REGN5837 4.63 × 10^-10 [1]: 1.46e-13 M
- CD4+ T cell activation (% CD25+), REGN1979 EC50 (M), fixed REGN5837 7.72 × 10^-11 [1]: 2.08e-13 M
- CD4+ T-cell Proliferation, Fold Change (EC50), fixed REGN5837 0 (reference) [1]: 1 fold
- CD4+ T-cell Proliferation, REGN1979 EC50 (M), fixed REGN5837 0 [1]: 1.63e-11 M
- CD4+ T-cell Proliferation, REGN1979 EC50 (M), fixed REGN5837 1.00 × 10^-7 [1]: 8.42e-13 M
- CD4+ T-cell Proliferation, REGN1979 EC50 (M), fixed REGN5837 1.67 × 10^-8 [1]: 9.31e-13 M
- CD4+ T-cell Proliferation, REGN1979 EC50 (M), fixed REGN5837 2.78 × 10^-9 [1]: 4.25e-13 M
- CD4+ T-cell Proliferation, REGN1979 EC50 (M), fixed REGN5837 4.63 × 10^-10 [1]: 1.25e-12 M
- CD4+ T-cell Proliferation, REGN1979 EC50 (M), fixed REGN5837 7.72 × 10^-11 [1]: 2.36e-12 M
- CD8+ T cell activation (% CD25+), Fold Change (EC50), fixed REGN5837 0 (reference) [1]: 1 fold
- CD8+ T cell activation (% CD25+), REGN1979 EC50 (M), fixed REGN5837 0 [1]: 3.38e-12 M
- CD8+ T cell activation (% CD25+), REGN1979 EC50 (M), fixed REGN5837 1.00 × 10^-7 [1]: 6.32e-13 M
- CD8+ T cell activation (% CD25+), REGN1979 EC50 (M), fixed REGN5837 1.67 × 10^-8 [1]: 5.88e-13 M
- CD8+ T cell activation (% CD25+), REGN1979 EC50 (M), fixed REGN5837 2.78 × 10^-9 [1]: 2.68e-13 M
- CD8+ T cell activation (% CD25+), REGN1979 EC50 (M), fixed REGN5837 4.63 × 10^-10 [1]: 9.01e-13 M
- CD8+ T cell activation (% CD25+), REGN1979 EC50 (M), fixed REGN5837 7.72 × 10^-11 [1]: 1.64e-12 M
- CD8+ T-cell Proliferation, Fold Change (EC50), fixed REGN5837 0 (reference) [1]: 1 fold
- CD8+ T-cell Proliferation, REGN1979 EC50 (M), fixed REGN5837 0 [1]: 1.97e-11 M
- CD8+ T-cell Proliferation, REGN1979 EC50 (M), fixed REGN5837 1.00 × 10^-7 [1]: 1.55e-12 M
- CD8+ T-cell Proliferation, REGN1979 EC50 (M), fixed REGN5837 1.67 × 10^-8 [1]: 8.31e-13 M
- CD8+ T-cell Proliferation, REGN1979 EC50 (M), fixed REGN5837 2.78 × 10^-9 [1]: 7.09e-13 M
- CD8+ T-cell Proliferation, REGN1979 EC50 (M), fixed REGN5837 4.63 × 10^-10 [1]: 3.43e-12 M
- CD8+ T-cell Proliferation, REGN1979 EC50 (M), fixed REGN5837 7.72 × 10^-11 [1]: 8.36e-12 M
- WSU-DLCL2 Cell Killing, Fold Change (EC50), fixed REGN5837 0 (reference) [1]: 1 fold
- WSU-DLCL2 Cell Killing, REGN1979 EC50 (M), fixed REGN5837 0 [1]: 2.89e-12 M
- WSU-DLCL2 Cell Killing, REGN1979 EC50 (M), fixed REGN5837 1.00 × 10^-7 [1]: 8.53e-14 M
- WSU-DLCL2 Cell Killing, REGN1979 EC50 (M), fixed REGN5837 1.67 × 10^-8 [1]: 1.85e-13 M
- WSU-DLCL2 Cell Killing, REGN1979 EC50 (M), fixed REGN5837 2.78 × 10^-9 [1]: 3.98e-13 M
- WSU-DLCL2 Cell Killing, REGN1979 EC50 (M), fixed REGN5837 4.63 × 10^-10 [1]: 3.46e-13 M
- WSU-DLCL2 Cell Killing, REGN1979 EC50 (M), fixed REGN5837 7.72 × 10^-11 [1]: 8.37e-13 M
- IFN-gamma release, Fold change (CKR), fixed REGN5837 0 (reference) [2]: 1 fold
- IFN-gamma release, REGN1979 EC50 (M), fixed REGN5837 0 [2]: 1.82e-10 M
- IFN-gamma release, REGN1979 EC50 (M), fixed REGN5837 1.0 X 10^-7 [2]: 1.17e-10 M
- IFN-gamma release, REGN1979 EC50 (M), fixed REGN5837 1.67 X 10^-8 [2]: 5.34e-11 M
- IFN-gamma release, REGN1979 EC50 (M), fixed REGN5837 2.78 X 10^-9 [2]: 2e-10 M
- IFN-gamma release, REGN1979 EC50 (M), fixed REGN5837 4.63 X 10^-10 [2]: 6.72e-11 M
- IFN-gamma release, REGN1979 EC50 (M), fixed REGN5837 7.72 X 10^-11 [2]: 6.57e-11 M
- IL-2 release, Fold change (CKR), fixed REGN5837 0 (reference) [2]: 1 fold
- IL-2 release, REGN1979 EC50 (M), fixed REGN5837 0 [2]: 1.25e-10 M
- IL-2 release, REGN1979 EC50 (M), fixed REGN5837 1.0 X 10^-7 [2]: 2.81e-11 M
- IL-2 release, REGN1979 EC50 (M), fixed REGN5837 1.67 X 10^-8 [2]: 1.96e-11 M
- IL-2 release, REGN1979 EC50 (M), fixed REGN5837 2.78 X 10^-9 [2]: 5.18e-12 M
- IL-2 release, REGN1979 EC50 (M), fixed REGN5837 4.63 X 10^-10 [2]: 5.36e-11 M
- IL-2 release, REGN1979 EC50 (M), fixed REGN5837 7.72 X 10^-11 [2]: 3.89e-08 M
- IL-4 release, Fold change (CKR), fixed REGN5837 0 (reference) [2]: 1 fold
- IL-4 release, REGN1979 EC50 (M), fixed REGN5837 0 [2]: 9.99e-10 M
- IL-4 release, REGN1979 EC50 (M), fixed REGN5837 1.0 X 10^-7 [2]: 1.66e-11 M
- IL-4 release, REGN1979 EC50 (M), fixed REGN5837 1.67 X 10^-8 [2]: 1.53e-11 M
- IL-4 release, REGN1979 EC50 (M), fixed REGN5837 2.78 X 10^-9 [2]: 1.28e-11 M
- IL-4 release, REGN1979 EC50 (M), fixed REGN5837 4.63 X 10^-10 [2]: 1.89e-11 M
- IL-4 release, REGN1979 EC50 (M), fixed REGN5837 7.72 X 10^-11 [2]: 3.77e-10 M
- IL-6 release, Fold change (CKR), fixed REGN5837 0 (reference) [2]: 1 fold
- IL-6 release, REGN1979 EC50 (M), fixed REGN5837 0 [2]: 7.42e-11 M
- IL-6 release, REGN1979 EC50 (M), fixed REGN5837 1.0 X 10^-7 [2]: 5.13e-11 M
- IL-6 release, REGN1979 EC50 (M), fixed REGN5837 1.67 X 10^-8 [2]: 7.89e-12 M
- IL-6 release, REGN1979 EC50 (M), fixed REGN5837 2.78 X 10^-9 [2]: 2.68e-11 M
- IL-6 release, REGN1979 EC50 (M), fixed REGN5837 4.63 X 10^-10 [2]: 1.45e-12 M
- IL-6 release, REGN1979 EC50 (M), fixed REGN5837 7.72 X 10^-11 [2]: 1.61e-10 M
- IL-10 release, Fold change (CKR), fixed REGN5837 0 (reference) [2]: 1 fold
- IL-10 release, REGN1979 EC50 (M), fixed REGN5837 0 [2]: 9.95e-11 M
- IL-10 release, REGN1979 EC50 (M), fixed REGN5837 1.0 X 10^-7 [2]: 3.54e-11 M
- IL-10 release, REGN1979 EC50 (M), fixed REGN5837 1.67 X 10^-8 [2]: 1.04e-10 M
- IL-10 release, REGN1979 EC50 (M), fixed REGN5837 2.78 X 10^-9 [2]: 2.43e-10 M
- IL-10 release, REGN1979 EC50 (M), fixed REGN5837 4.63 X 10^-10 [2]: 5.29e-11 M
- IL-10 release, REGN1979 EC50 (M), fixed REGN5837 7.72 X 10^-11 [2]: 3.34e-11 M
- IL-17A release, Fold change (CKR), fixed REGN5837 0 (reference) [2]: 1 fold
- IL-17A release, REGN1979 EC50 (M), fixed REGN5837 0 [2]: 2.5e-10 M
- IL-17A release, REGN1979 EC50 (M), fixed REGN5837 1.0 X 10^-7 [2]: 3.22e-10 M
- IL-17A release, REGN1979 EC50 (M), fixed REGN5837 1.67 X 10^-8 [2]: 1.11e-10 M
- IL-17A release, REGN1979 EC50 (M), fixed REGN5837 2.78 X 10^-9 [2]: 7.6e-11 M
- IL-17A release, REGN1979 EC50 (M), fixed REGN5837 4.63 X 10^-10 [2]: 4.63e-10 M
- IL-17A release, REGN1979 EC50 (M), fixed REGN5837 7.72 X 10^-11 [2]: 1.86e-10 M
- TNF alpha release, Fold change (CKR), fixed REGN5837 0 (reference) [2]: 1 fold
- TNF alpha release, REGN1979 EC50 (M), fixed REGN5837 0 [2]: 2.43e-10 M
- TNF alpha release, REGN1979 EC50 (M), fixed REGN5837 1.0 X 10^-7 [2]: 5.03e-12 M
- TNF alpha release, REGN1979 EC50 (M), fixed REGN5837 1.67 X 10^-8 [2]: 8.69e-13 M
- TNF alpha release, REGN1979 EC50 (M), fixed REGN5837 2.78 X 10^-9 [2]: 3.45e-12 M
- TNF alpha release, REGN1979 EC50 (M), fixed REGN5837 7.72 X 10^-11 [2]: 1.62e-10 M
